According to patent US20080103086A1, “METHODS FOR THE TREATMENT OF DISEASES ASSOCIATED WITH THE SECRETION OF HMGB1” (priority 2006, published 2008):

Assays:
[1] = molecular target: six His-tagged wild type HMGB1 (UniProt P09429)
[2] = molecular target: six His-tagged HMGB1 NLS1/2A, not tagged with GFP (UniProt P09429)
HMGB1 secretion = test: Inhibition of HMGB1 secretion by Protein Kinase C inhibitor in LPS-treated RAW 264.7 cells (Western blot of supernatants); type: cell-based, Murine; conditions: 200 ng/mL LPS combined with inhibitor, 16 h, Go 6983 0.1 to 10 μM
Method: RAW 264.7 cells were treated with 200 ng/mL of LPS alone or combined with Gö 6983 (PKC inhibitor) at the indicated concentrations (μM) for 16 h. SB203580 (p38 inhibitor), PD098059 (ERK1/2 inhibitor), Bay 11-7082 (NF-κB inhibitor) were used for comparison. The supernatants were harvested and separated with 12% SDS-PAGE and Western blot was performed to observe the level of HMGB1.
To analyze the secretion of HMGB1 in the supernatants, culture media were replaced with serum-free OPTI-MEM (Gibco BRL) medium and concentrated with Amicon Centricon filtration (Millipore) after removing cell debris, and Western blot analysis was performed. The cytoplasmic and nuclear fractions from 5×10^6 cells were separated using a digitonin-based method (Bird, C. H. et al, Mol Cell Biol 21:5396-5407 (2001)) to observe the levels of HMGB1 in each fraction. The cells were lysed using 1% Nonidet P-40 buffer containing a protease inhibitor cocktail (Sigma), and the protein concentrations were measured by Bradford assay (Biorad) for the analysis of whole cell lysates (WCLs). The protein samples underwent 12% SDS-PAGE and were transferred to a nitrocellulose membrane. Western blot analysis was performed using rabbit anti-HMGB1 (BD Pharmingen) and HRP-labeled goat anti-rabbit Ig as primary and secondary antibodies, respectively.
To observe the inhibition of HMGB1 secretion by PKC inhibitor, RAW 264.7 cells were treated with 200 ng/mL of LPS alone or combined with Gö 6983 (Calbiochem), a conventional PKC (α, β, and γ) inhibitor including PKCδ and PKCζ, at the indicated concentrations for 16 h. Other inhibitors of SB203580 (p38 inhibitor, Calbiochem), PD098059 (ERK1/2 inhibitor, Calbiochem), Bay 11-7082 (NF-κB inhibitor, Calbiochem) were included. The supernatants were harvested and separated with 12% SDS-PAGE and Western blot was performed to observe the level of HMGB1.

Flag-tagged KAP-α1 [3] = molecular target: T1, Flag-tagged KAP-α1 (human, UniProt P52294 1-538); test: co-immunoprecipitation from co-transfected RAW 264.7 cells, Western blot (summed up in Example 7)
T1 construct: Expressed in co-transfected RAW 264.7 cells; used in co-immunoprecipitation; also called FLAG-KAP-α1; not shown: Flag tag of vector pCMV-Tag2 (Stratagene)
Method: (§1) To observe the binding of KAP protein to each mutant HMGB1 in the cells, Flag-tagged KAP-α1 and each mutant HMGB1-GFP plasmid were co-transfected into RAW 264.7 cells. Cell homogenates of transfected RAW 264.7 cells were harvested and incubated with mouse anti-Flag (M2, Sigma) and mouse anti-GFP (Santa Cruz) at 4° C. overnight. Immune complexes were collected and the membranes were blotted with anti-Flag and anti-GFP, respectively. The reciprocal experiment was also performed. GST was used as a negative control. And to test the direct binding of HMGB1 to KAP-α1, GST pull-down assay was performed as described above.
(§2) To observe the effect of phosphorylation in both NLS regions of HMGB1 on the binding to KAP-α1 and on the subcellular localization of HMGB1 in the transfected cells, a number of site-directed mutations in six serines of NLS1 and NLS2 were generated using a HMGB1-GFP fusion construct plasmid (FIG. 5A). Serines 35, 39, 42, 46, 53 within or close to NLS1 and serine 181 at NLS2 were alternatively or totally mutated into alanine or glutamic acid. Substitution with alanine and glutamic acid simulated unphosphorylated and a phosphorylated states, respectively. RAW 264.7 cells were co-transfected with a Flag-tagged KAP-α1 plasmid and each mutant HMGB1-GFP plasmid, and immunoprecipitates using anti-GFP (FIG. 5B) or anti-Flag (FIG. 5C) were analyzed with anti-Flag for KAP-α1 or anti-GFP for HMGB1.

Flag-tagged KAP-α1 [4] = molecular target: T1, Flag-tagged KAP-α1; test: co-immunoprecipitation from co-transfected RAW 264.7 cells (anti-GFP and anti-Flag), Western blot
Method: as §1, §2

[5] = molecular target: T2, GST-KAP-α1 fusion protein (human, UniProt P52294 1-538); test: GST pull-down with GST-KAP-α1 on glutathione-Sepharose beads, anti-His blot
T2 construct: Produced in E. coli BL21, immobilized on glutathione-Sepharose 4B beads; the primers start at the ATG of the coding region; not shown: glutathione S-transferase (GST) tag encoded by vector pGEX-4T-1 (Pharmacia)
Method: Direct binding of recombinant HMGB1 protein to KAP-α1 was tested to exclude the possibility that other HMGB1-interacting proteins present in cell lysates could have a role in binding. Purified six His-tagged wild type HMGB1 protein and boxes A (aa 1-87) and B (aa 88-162) proteins, which were identified at expected size by Coomassie blue staining (FIG. 4B, left), were purified from E. coli BL21. Same molar amounts of all wild and truncated forms of HMGB1 were added to GST-KAP-α1, and GST pull-down assay was performed.

T1 sequence (P52294 whole entry): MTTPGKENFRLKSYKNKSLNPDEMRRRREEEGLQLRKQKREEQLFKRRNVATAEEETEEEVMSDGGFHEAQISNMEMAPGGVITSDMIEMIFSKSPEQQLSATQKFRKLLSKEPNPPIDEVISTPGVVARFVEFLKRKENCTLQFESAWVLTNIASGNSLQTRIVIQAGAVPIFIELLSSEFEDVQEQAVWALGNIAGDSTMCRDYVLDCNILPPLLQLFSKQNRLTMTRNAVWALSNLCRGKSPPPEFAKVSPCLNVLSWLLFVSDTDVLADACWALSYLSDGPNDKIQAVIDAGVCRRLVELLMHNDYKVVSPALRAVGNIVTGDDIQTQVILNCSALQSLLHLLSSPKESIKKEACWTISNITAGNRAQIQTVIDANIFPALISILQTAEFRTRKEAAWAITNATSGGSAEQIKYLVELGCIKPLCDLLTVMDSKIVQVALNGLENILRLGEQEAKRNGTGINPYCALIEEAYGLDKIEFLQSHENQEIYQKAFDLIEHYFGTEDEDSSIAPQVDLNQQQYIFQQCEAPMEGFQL
T2 sequence (P52294 whole entry, the tested form may be a part): as the sequence (P52294 whole entry) above

casein kinase II (CK II) (New England BioLabs)
in vitro protein kinase assay ([γ-32P]ATP, autoradiography) [1]: CK II and cdc2 showed no phosphorylation of HMGB1

protein kinase C (PKC) protein (Upstate)
in vitro protein kinase assay ([γ-32P]ATP, autoradiography) [2]: showed little or no phosphorylation compared to the WT HMGB1 | in vitro protein kinase assay ([γ-32P]ATP, autoradiography) [1]: PKC phosphorylated WT HMGB1

COc1ccc2c(c1)c(C1=C(c3c[nH]c4ccccc34)C(=O)NC1=O)cn2CCCN(C)C [Go 6983, 2-[1-(3-dimethylaminopropyl)-5-methoxyindol-3-yl]-3-(1H-indol-3-yl) Maleimide]
levels of HMGB1 in the culture supernatants (HMGB1 secretion) (HMGB1 secretion): decreased to undetectable level | levels of HMGB1 in the culture supernatants (HMGB1 secretion) (HMGB1 secretion; listed as Go6983): the secretion of HMGB1 was inhibited

C[S+]([O-])c1ccc(-c2nc(-c3ccncc3)c(-c3ccc(F)cc3)[nH]2)cc1 (stereo not shown) [SB203580]
levels of HMGB1 in the culture supernatants (HMGB1 secretion) (HMGB1 secretion): no change of HMGB1 secretion

Cc1ccc(S(=O)(=O)/C=C/C#N)cc1 [Bay 11-7082]
levels of HMGB1 in the culture supernatants (HMGB1 secretion) (HMGB1 secretion): decreased in a concentration-dependent manner

COc1cccc(-c2cc(=O)c3ccccc3o2)c1N [PD098059]
levels of HMGB1 in the culture supernatants (HMGB1 secretion) (HMGB1 secretion): no change of HMGB1 secretion

Cdc2 kinase (New England BioLabs)
in vitro protein kinase assay ([γ-32P]ATP, autoradiography) [1]: CK II and cdc2 showed no phosphorylation of HMGB1

B1: HMGB1 NLS1/2A (HMGB1-GFP mutant) (other, human, UniProt P09429 1-215, looked up)
chain: MGKGDPKKPRGKMSSYAFFVQTCREEHKKKHPDAAVNFAEFAKKCAERWKTMAAKEKGKFEDMAKADKARYEREMKTYIPPKGETKKKFKDPNAPKRPPSAFFLFCSEYRPKIKGEHPGLSIGDVAKKLGEMWNNTAADDKQPYEKKAAKLKEKYEKDIAAYRAKGKPDAAKKGVVKAEKAKKKKEEEEDEEDEEDEEEEEDEEDEDEEEDDDDE
notes: not shown: EGFP of pEGFP-N1 and linker
interaction relative to wild-type (Flag-tagged KAP-α1 [3]): ≥ 50 % of wild-type

B2: HMGB1 NLS1/2E (HMGB1-GFP mutant) (other, human, UniProt P09429 1-215, looked up)
chain: MGKGDPKKPRGKMSSYAFFVQTCREEHKKKHPDAEVNFEEFEKKCEERWKTMEAKEKGKFEDMAKADKARYEREMKTYIPPKGETKKKFKDPNAPKRPPSAFFLFCSEYRPKIKGEHPGLSIGDVAKKLGEMWNNTAADDKQPYEKKAAKLKEKYEKDIAAYRAKGKPDAAKKGVVKAEKEKKKKEEEEDEEDEEDEEEEEDEEDEDEEEDDDDE
notes: as for B1
binding result (Flag-tagged KAP-α1 [4]): no binding

B3: HMGB1 NLS2E (HMGB1-GFP mutant) (other, human, UniProt P09429 1-215, looked up)
chain: MGKGDPKKPRGKMSSYAFFVQTCREEHKKKHPDASVNFSEFSKKCSERWKTMSAKEKGKFEDMAKADKARYEREMKTYIPPKGETKKKFKDPNAPKRPPSAFFLFCSEYRPKIKGEHPGLSIGDVAKKLGEMWNNTAADDKQPYEKKAAKLKEKYEKDIAAYRAKGKPDAAKKGVVKAEKEKKKKEEEEDEEDEEDEEEEEDEEDEDEEEDDDDE
notes: as for B1
interaction relative to wild-type (Flag-tagged KAP-α1 [4]): ~50 % of wild-type | interaction relative to wild-type (Flag-tagged KAP-α1 [3]): ≥ 50 % of wild-type

B4: HMGB1 NLS2A (HMGB1-GFP mutant) (other, human, UniProt P09429 1-215, looked up)
chain: MGKGDPKKPRGKMSSYAFFVQTCREEHKKKHPDASVNFSEFSKKCSERWKTMSAKEKGKFEDMAKADKARYEREMKTYIPPKGETKKKFKDPNAPKRPPSAFFLFCSEYRPKIKGEHPGLSIGDVAKKLGEMWNNTAADDKQPYEKKAAKLKEKYEKDIAAYRAKGKPDAAKKGVVKAEKAKKKKEEEEDEEDEEDEEEEEDEEDEDEEEDDDDE
notes: as for B1
interaction relative to wild-type (Flag-tagged KAP-α1 [3]): ≥ 50 % of wild-type

B5: HMGB1 NLS1A (HMGB1-GFP mutant) (other, human, UniProt P09429 1-215, looked up)
chain: MGKGDPKKPRGKMSSYAFFVQTCREEHKKKHPDAAVNFAEFAKKCAERWKTMAAKEKGKFEDMAKADKARYEREMKTYIPPKGETKKKFKDPNAPKRPPSAFFLFCSEYRPKIKGEHPGLSIGDVAKKLGEMWNNTAADDKQPYEKKAAKLKEKYEKDIAAYRAKGKPDAAKKGVVKAEKSKKKKEEEEDEEDEEDEEEEEDEEDEDEEEDDDDE
notes: as for B1
interaction relative to wild-type (Flag-tagged KAP-α1 [3]): ≥ 50 % of wild-type

B6: HMGB1 NLS1E (HMGB1-GFP mutant) (other, human, UniProt P09429 1-215, looked up)
chain: MGKGDPKKPRGKMSSYAFFVQTCREEHKKKHPDAEVNFEEFEKKCEERWKTMEAKEKGKFEDMAKADKARYEREMKTYIPPKGETKKKFKDPNAPKRPPSAFFLFCSEYRPKIKGEHPGLSIGDVAKKLGEMWNNTAADDKQPYEKKAAKLKEKYEKDIAAYRAKGKPDAAKKGVVKAEKSKKKKEEEEDEEDEEDEEEEEDEEDEDEEEDDDDE
notes: as for B1
interaction relative to wild-type (Flag-tagged KAP-α1 [4]): ~50 % of wild-type | interaction relative to wild-type (Flag-tagged KAP-α1 [3]): ≥ 50 % of wild-type

B7: six His-tagged HMGB1 box A (aa 1-87) (other, human, UniProt P09429 1-87, looked up)
chain: MGKGDPKKPRGKMSSYAFFVQTCREEHKKKHPDASVNFSEFSKKCSERWKTMSAKEKGKFEDMAKADKARYEREMKTYIPPKGETKK
notes: range 1-87; Includes NLS1 (aa 28-44); Purified from E. coli BL21; also called boxes A (aa 1-87); not shown: 6×His tag and vector-encoded residues of pRSETB (Invitrogen)
binding result [5]: no binding

B8: six His-tagged HMGB1 box B (aa 88-162) (other, human, UniProt P09429 88-162, looked up, not shown: small tags and cut ends)
chain: KFKDPNAPKRPPSAFFLFCSEYRPKIKGEHPGLSIGDVAKKLGEMWNNTAADDKQPYEKKAAKLKEKYEKDIAAY
notes: range 88-162
binding result [5]: no binding
